This is an account of results in paper PMC6595007, “Structural basis for cooperativity of human monoclonal antibodies to meningococcal factor H-binding protein” (Communications Biology, 2019).

In general, koff refers to the first-order rate constant of dissociation. Read a high koff as fast dissociation.

What all share (settings): both partners purified
In experiment [1] the target is T1, factor H-binding protein variant 1 (fHbp var.1), recombinant, full length (Neisseria meningitidis, UniProt E6MV22).
T1 construct: source: E. coli BL21 (DE3) Star, pET-21b, purified (HisTrap HP, HiTrap SP HP)
Description: HDX-MS; 54 pmol antibody mixed with an equimolar amount of fHbp var.1, 30 min at room temperature; exposure 30 s to 30 min; difference counted when above 1 Da.

Experiment [2] deals with T1, factor H-binding protein variant 1 …. Description: negative-stain transmission electron microscopy (single particle, random conical tilt); complexes formed at 1:1 molar ratio, 1 h at room temperature, purified on Superdex 200 Increase; diluted to 0.03 mg/ml in 20 mM Tris, 300 mM NaCl, pH 8; 1% uranyl acetate.
For experiment [3] the target is unchanged. Description: SPR. For orientation: In SPR one partner is held on a chip, and binding of the other changes the refractive index at the surface.
Experiment [4] addresses T2, human factor H (human, UniProt P08603 19-1231).
T2 construct: also called fH; human fH
Description: SPR; fHbp var.1 captured on immobilised mAb 1A12, second mAb 2C1 injected, then fH at 100 nM, 30 µl/min; HBS-P.

Experiment [5] has as its target T2, human factor H. Description: SPR; fHbp var.1 captured on immobilised mAb 7B10, second mAb 1A3 injected, then fH at 100 nM, 30 µl/min; HBS-P.
In experiment [6] the target is T2, human factor H. Description: SPR; ternary complex: fHbp var.1 captured on immobilised mAb 1A3 (CM-5), no second mAb; fH injected at 100 nM, 30 µl/min; HBS-P.
In experiment [7] the target is T2, human factor H. Description: SPR; ternary complex: fHbp var.1 captured on immobilised mAb 1A12 (CM-5), no second mAb; fH injected at 100 nM, 30 µl/min; HBS-P.
For experiment [8], the target named is T2, human factor H. Description: SPR; ternary complex: fHbp var.1 captured on immobilised mAb 7B10 (CM-5), no second mAb; fH injected at 100 nM, 30 µl/min; HBS-P.
For experiment [9], the target named is T2, human factor H. Description: SPR; quaternary complex: fHbp var.1 captured on immobilised mAb 1A3, second mAb 2C1 injected, then fH at 100 nM, 30 µl/min; HBS-P.
Experiment [10] has as its target T2, human factor H. Description: SPR; quaternary complex: fHbp var.1 captured on immobilised mAb 1A12, second mAb 1A3 injected, then fH at 100 nM, 30 µl/min; HBS-P.
Experiment [11] has as its target T2, human factor H. Description: SPR; quaternary complex: fHbp var.1 captured on immobilised mAb 1A3, second mAb 1A12 injected, then fH at 100 nM, 30 µl/min; HBS-P.
The target in experiment [12] is T2, human factor H. Description: SPR; quaternary complex: fHbp var.1 captured on immobilised mAb 7B10, second mAb 2C1 injected, then fH at 100 nM, 30 µl/min; HBS-P.
Experiment [13] deals with T2, human factor H. Description: SPR; quaternary complex: fHbp var.1 captured on immobilised mAb 7B10, second mAb 1A12 injected, then fH at 100 nM, 30 µl/min; HBS-P.
Experiment [14] concerns the target T2, human factor H. Description: SPR; fHbp var.1 captured on immobilised mAb 1A3, second mAb 1A3 injected (identical, no signal of the second mAb), then fH at 100 nM, 30 µl/min; HBS-P.
Experiment [15] concerns the target T2, human factor H. Description: SPR; fHbp var.1 captured on immobilised mAb 1A12, second mAb 1A12 injected (identical, no signal of the second mAb), then fH at 100 nM, 30 µl/min; HBS-P.

T2 sequence (P08603 19-1231): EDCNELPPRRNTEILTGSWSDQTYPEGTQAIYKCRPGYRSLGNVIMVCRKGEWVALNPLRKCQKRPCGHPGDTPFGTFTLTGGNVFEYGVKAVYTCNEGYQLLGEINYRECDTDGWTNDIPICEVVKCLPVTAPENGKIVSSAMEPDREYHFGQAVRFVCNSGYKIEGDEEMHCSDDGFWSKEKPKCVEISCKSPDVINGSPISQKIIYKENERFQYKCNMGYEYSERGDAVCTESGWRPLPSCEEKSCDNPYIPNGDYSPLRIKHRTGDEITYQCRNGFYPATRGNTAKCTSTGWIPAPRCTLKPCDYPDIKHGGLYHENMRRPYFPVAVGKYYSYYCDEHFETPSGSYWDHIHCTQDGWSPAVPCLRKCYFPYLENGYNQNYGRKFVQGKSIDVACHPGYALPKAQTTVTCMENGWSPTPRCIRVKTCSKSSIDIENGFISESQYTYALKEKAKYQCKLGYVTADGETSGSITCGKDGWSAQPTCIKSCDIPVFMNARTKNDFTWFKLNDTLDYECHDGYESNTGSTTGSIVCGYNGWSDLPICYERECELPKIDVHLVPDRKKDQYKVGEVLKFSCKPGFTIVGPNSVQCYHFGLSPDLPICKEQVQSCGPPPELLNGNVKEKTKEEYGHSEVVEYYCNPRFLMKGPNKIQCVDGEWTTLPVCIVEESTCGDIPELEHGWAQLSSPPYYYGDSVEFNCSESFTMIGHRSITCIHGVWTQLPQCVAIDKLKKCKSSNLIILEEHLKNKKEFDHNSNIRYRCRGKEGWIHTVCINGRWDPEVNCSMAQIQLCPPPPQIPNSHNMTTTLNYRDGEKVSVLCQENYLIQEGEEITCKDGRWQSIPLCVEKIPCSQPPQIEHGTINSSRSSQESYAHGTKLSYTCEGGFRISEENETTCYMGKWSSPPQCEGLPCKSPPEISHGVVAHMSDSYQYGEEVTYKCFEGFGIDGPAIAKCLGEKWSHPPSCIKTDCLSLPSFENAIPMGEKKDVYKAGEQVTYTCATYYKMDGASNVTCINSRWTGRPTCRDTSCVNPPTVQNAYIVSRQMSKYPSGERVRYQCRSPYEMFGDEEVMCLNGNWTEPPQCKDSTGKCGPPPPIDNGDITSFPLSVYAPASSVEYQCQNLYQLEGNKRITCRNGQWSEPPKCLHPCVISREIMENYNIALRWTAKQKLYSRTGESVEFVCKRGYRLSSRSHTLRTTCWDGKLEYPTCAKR

B1: human monoclonal antibody 7B10 (IgG1) against fHbp (antibody, V domains shown)
VH: QVQLVESGGGLVQPGGSLRLSCVTSGFTFRSYAMTWVRQAPGKGLEWVSSISHSGGSTKYADSVKGRLTISRDDSMDTLYLQMNSLRAEDTAIYYCAKDQISYPAASPLDYWGRGTLVTVSS
VL: EIVLTQSPGTLSLSPGERATLSCRASQSFSSFSLAWYQQKPGQAPRLLIYAPSNRATGIADRFSGSGSGTDFTLTISRLEPEDFAVYYCQQYGSSPITFGQGTRLEIK
notes: also called mAb7B10; mAb 7B10; source: Expi293 cells, transiently transfected, purified (protein G beads)
Turning to B1, the binding result in experiment [1] was “binds”.

B2: antigen-binding fragment of human mAb 7B10 (Fab, V domains shown)
VH: B1 VH
VL: B1 VL
notes: also called fAb7B10; huFab 7B10; source: E. coli Rosetta 2, purified (His Gravity Trap, HiTrap SP HP)
Take B2: the binding result in experiment [2] is “binds”.

B3: human monoclonal antibody 1A3 (IgG1) against fHbp (antibody, V domains shown)
VH: EVQLVESGGGLVQPGGSLRLSCAASGFTFSSYAMSWVRQAPGKGLEWVSAISGSGGSSHYTDSVKGRFTISRDNSKNTLWLQMNSLRAEDTAIYYCAKTSGSYYYHYEIDVWGQGTTVTVSS
VL: EIVLTQSPGTLSLSPGERATLSCRASQSVSSSYLAWYQQKPGQAPRLLIYGTSNRATGIPDRFSGSGSGTDFTLTVSRLEPEDFAVYYCQQYGSSPCSFGQGTKLELK
notes: also called mAb1A3; mAb 1A3; source: Expi293 cells, transiently transfected, purified (protein G beads)
Regarding B3, the binding result in [3] is recorded as “binds”.

B4: human monoclonal antibody 1A12 (IgG1) against fHbp (antibody, V domains shown)
VH: EVQLVQSGAELKKPGESLKISCKASGYTFTNYWVVWVRQMPGEGLEWMGSIHPRDSDARYSLSFEGRVTFSVDKSTTTAYLQWSSLKVSDSAIYYCARLSQVSGWSPWVGPWGQGTLVTVSS
VL: DIVMTQSPSSLSASVGDRVTITCRASQSISVSLNWYQQKPGKAPKVLIYAASRLQSGIPSRFSGSGSGSHFTLTISSLQPEDFATYYCQETYSDLMYTFGQGTKVEIK
notes: also called mAb1A12; mAb 1A12; source: Expi293 cells, transiently transfected, purified (protein G beads)
Turning to B4, the binding result in experiment [3] was “binds”.

B5: antigen-binding fragment of human mAb 2C1 (Fab, V domains shown)
VH: QVQLVESGGGVVQPGRSLRLSCAASGFTFSSFAMHWVRQAPGKGLEWVAVTSFDGKDEYYAASVKGRFSVSRDISKNTVYLQMNSLKTEDTAVYYCAKDRGDWDFDYWGQGTLVTVSS
VL: SYELTQPPSVSVSPGQTATITCSGEKLGDKYTSWYQQKPGQSPVLIIYQDTKRPSGIPARFSGSNSGNTATLTISGTQAVDEADYYCQAWDSYTVPFGGGTKLTVL
notes: also called fAb2C1; huFab 2C1; source: E. coli Rosetta 2, purified (His Gravity Trap, HiTrap SP HP)
On to B5, for which the binding result in experiment [2] is “binds”.

B6: human monoclonal antibody 2C1 (IgG1) against fHbp (antibody, V domains shown)
VH: B5 VH
VL: B5 VL
notes: also called mAb2C1; mAb 2C1; source: Expi293 cells, transiently transfected, purified (protein G beads)
As to B6, the binding result in experiment [1] is “binds”.

B7: factor H-binding protein variant 1 (fHbp var.1), recombinant, full length (natural protein)
chain: CSSGGGGVAADIGAGLADALTAPLDHKDKGLQSLTLDQSVRKNEKLKLAAQGAEKTYGNGDSLNTGKLKNDKVSRFDFIRQIEVDGQLITLESGEFQVYKQSHSALTAFQTEQIQDSEHSGKMVAKRQFRIGDIAGEHTSFDKLPEGGRATYRGTAFGSDDAGGKLTYTIDFAAKQGNGKIEHLKSPELNVDLAAADIKPDGKRHAVISGSVLYNQAEKGSYSLGIFGGKAQEVAGSAEVKTVNGIRHIGLAAKQ
notes: source: E. coli BL21 (DE3) Star, pET-21b, purified (HisTrap HP, HiTrap SP HP)
Take B7: the koff with human factor H [4] worked out at 0.043 s⁻¹; with human factor H [5], 0.00032 s⁻¹; in the experiment with human factor H [6], 0.00074 s⁻¹; in the experiment with human factor H [7], 0.0016 s⁻¹; with human factor H [8] it was 0.00032 s⁻¹; with human factor H [9], 0.00063 s⁻¹. In addition, the koff with human factor H [10] came out at 0.00068 s⁻¹; with human factor H [11], 0.00035 s⁻¹; with human factor H [12], 0.00029 s⁻¹; with human factor H [13], 0.00011 s⁻¹; with human factor H [14], 0.00074 s⁻¹; in the experiment with human factor H [15], 0.0018 s⁻¹.
